From US20140096274A1 (published 2014) come the findings set out here.

In assay [1] the target is T1, murine RANK-Fc (mouse, UniProt O35305 31-214).
T1 construct: also called mRANK-Fc; mRANK-FC; not shown: Fc part of the bought fusion; not described
T1 sequence (looked up): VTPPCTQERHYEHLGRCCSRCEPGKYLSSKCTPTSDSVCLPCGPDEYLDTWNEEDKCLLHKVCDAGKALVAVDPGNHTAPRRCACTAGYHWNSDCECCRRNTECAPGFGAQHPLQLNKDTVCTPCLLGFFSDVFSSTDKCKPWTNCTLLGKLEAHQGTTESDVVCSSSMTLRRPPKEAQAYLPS
In words: ELISA dose response on RANK-Fc coated wells, global four parameter logistic fit. The procedure: The ability of dimer 1 and dimer 2 to compete with wild-type murine RANKL for binding to mRANK was investigated using a competitive ELISA. […] After washing off unbound RANKL, mRANK bound flag-mRANKL was detected by an anti-flag antibody. A RANKL dimer concentration dependant decrease in mRANK binding and right shift in the EC₅₀ of flag-mRANKL was observed (FIGS. 7 and 18B), indicating a competitive inhibition based mechanism. IC₅₀ values for dimer 1 and dimer 2 were calculated to be 4 nM by a global fit of the individual dose response curves using a four parameter logistic model.
As the concentration of flagRANKL WT used in the competitive ELISA was above its KD for mRANK-Fc, for mD2 also an EC₅₀ shift experiment was performed. A dose-response curve of 0-50 nM flagRANKL WT binding to RANK-Fc was recorded in the presence and absence of various fixed concentrations of D2 (3, 5, 11, 22 or 43 nM) (FIG. 18B and FIG. 7). […] Upon a global fit of the individual dose response curves using a four parameter logistic model, an EC₅₀ for flag-mRANKL WT of 0.6 nM (±0.04 nM) was obtained and for mD2 an A₂ value of 4 nM (±0.5 nM) was calculated, i.e. the concentration of inhibitor required to shift the dose response curve by a factor of 2.

Another assay deals with T2, human RANK-Fc (human, UniProt Q9Y6Q6 30-212).
T2 construct: also called hRANK-Fc; hRANK-FC; not shown: Fc part of the bought fusion; not described
T2 sequence (looked up): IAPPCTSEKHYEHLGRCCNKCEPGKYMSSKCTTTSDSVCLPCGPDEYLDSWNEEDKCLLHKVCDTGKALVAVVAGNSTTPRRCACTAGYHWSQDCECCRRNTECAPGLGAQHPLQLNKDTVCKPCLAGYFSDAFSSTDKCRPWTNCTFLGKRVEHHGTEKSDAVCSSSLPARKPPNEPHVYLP
Nature of the assay: SPR single cycle kinetics, hRANK-Fc captured at 20-40 RU, 1:1 fit. The procedure: (§1) Considering the high similarity between human RANKL and murine RANKL (>88%) the murine dimers were also tested for hRANK binding. Binding to hRANK-Fc and mRANK-Fc (both from R&D Systems) was recorded for five consecutive concentrations of murine flag RANKL WT, D1 (mD1) or D2 (mD2) (˜0.3-15 nM) using SPR with a single cycle kinetics based approach. The capture level of mRANK-Fc and hRANK-Fc was low (20-40 RU) in order to ensure 1:1 binding. Both WT and the D1 and D2 dimeric variants bound with high affinity towards the mRANK receptor and to the human RANK receptor (FIG. 16: Table 8).

Assay [2] addresses T1, murine RANK-Fc. Nature of the assay: SPR, mRANK-Fc captured at low density on C1 chip, 1:1 Langmuir fit, mean of three experiments. The procedure: SPR measurements were performed using ˜1500-2000 RU of captured mRANK-Fc on the surface of a CM5 sensor chip (FIGS. 15B and C). This is a density that results in a mean ratio of RANKL:RANK of approx 1:3 (52). […] (Table 5, below) In contrast, the ratio of binding of RANKL variants mD1 and mD2 to mRANK-Fc seems hardly to be affected by receptor density (Table 5). The values obtained after injecting 500 nM of the dimeric variants correlate to binding of 1.5 monomeric subunits by mD1 and 1.6 monomeric subunits by mD2.
Kinetic binding parameters were also measured for mD1 and mD2 binding to mRANK-FC in real time using SPR using murine RANKL-WT as a control (FIG. 15; table 8). RANKL dimer binding curves to mRANK-Fc captured at low density on the surface of a C1 sensorchip were recorded using concentrations ranging from 100 pM to 562 nM. At very low receptor density, RANKL proteins bind only one receptor molecule, allowing the data to be fitted to a Langmuir 1:1 interaction model (29). RANKL WT needed a very low density (<20 resonance units (RU)) to come close to a 1:1 ratio (FIG. 3A). […] Maximum binding of 5.5 RU is reached, which is slightly lower than the expected Rₘₐₓ value of 6.8 RU for a 1:1 ratio, but definitely larger than 3.4 RU, the Rₘₐₓ value expected for a binding ratio of 2 molecules of RANK per flag-mRANKL WT trimer. Similar to mRANKL WT, binding of RANKL mD1 or mD2 to mRANK-Fc results in slightly lower Rₘₐₓ values than expected for a 1:1 binding ratio: 24 RU D1 compared to 26 RU, and 20 RU D2 compared to 23 RU (FIG. 15A). These binding ratio's could be reached with mD1 and mD2 at densities of mRANK-Fc of <50 RU. The approximate 1:1 binding of RANKL proteins to mRANK-Fc allows fitting the data to the 1:1 Langmuir binding model.

Assay [3] concerns the target T1, murine RANK-Fc. In words: SPR single cycle kinetics, mRANK-Fc captured at 20-40 RU, 1:1 fit. The procedure:
as §1

B1: murine flagRANKL WT (wild-type mRANKL containing an N-terminal flagtag) (ligand, mouse, UniProt O35235 160-316, looked up)
chain: EAQPFAHLTINAASIPSGSHKVTLSSWYHDRGWAKISNMTLSNGKLRVNQDGFYYLYANICFRHHETSGSVPTDYLQLMVYVVKTSIKIPSSHNLMKGGSTKNWSGNSEFHFYSINVGGFFKLRAGEEISIQVSNPSLLDPDQDATYFGAFKVQDID
notes: Trimeric; also called flag-mRANKL WT; mWT; not shown: N-terminal flagtag
As for B1, the EC50 in the assay with murine RANK-Fc [1] turned out to be 0.6 nM. In addition, in the assay with human RANK-Fc, the Kd was found to be 0.104 nM, the koff turned out to be 0.000575 s⁻¹ and the kon stood at 5.63e+06 M⁻¹ s⁻¹. In the assay with murine RANK-Fc [2], this molecule displayed a Ka of 4.4e+10 M⁻¹, an equilibrium dissociation constant (Kd) of 0.065 nM, a koff of 0.00034 s⁻¹ and a kon of 5.9e+06 M⁻¹ s⁻¹. In the assay with murine RANK-Fc [3], this molecule showed a Kd of 0.0315 nM, a koff of 0.000189 s⁻¹ and a kon of 6.14e+06 M⁻¹ s⁻¹.
